Experimental data reported in patent US12303551B2, “Cellular immunotherapy compositions and uses thereof” (CERO THERPEUTICS HOLDINGS, INC., priority 2018, dated 2025).

B1: hCER104: human CER104 construct: Tim4 binding domain, Tim4 transmembrane domain, TLR8 and Dap12 engulfment signaling domains; SEQ ID NO:176 (protein)
chain: ETVVTEVLGHRVTLPCLYSSWSHNSNSMCWGKDQCPYSGCKEALIRTDGMRVTSRKSAKYRLQGTIPRGDVSLTILNPSESDSGVYCCRIEVPGWFNDVKINVRLNLQRASTTTHRTATTTTRRTTTTSPTTTRQMTTTPAALPTTVVTTPDLTTGTPLQMTTIAVFTTANTCLSLTPSTLPEEATGLLTPEPSKEGPILTAESETVLPSDSWSSVESTSADTVLLTSKESKVWDLPSTSHVSMWKTSDSVSSPQPGASDTAVPEQNKTTKTGQMDGIPMSMKNEMPISQLLMIIAPSLGFVLFALFVAFLHHLFYWDVWFIYNVCLAKVKGYRSLSTSQTFYDAYISYDTKDASVTDWVINELRYHLEESRDKNVLLCLEERDWDPGLAIIDNLMQSINQSKKTVFVLTKKYAKSWNFKTAFYLALQRLMDENMDVIIFILLEPVLQHSQYLRLRQRICKSSILQWPDNPKAEGLFWQTLRNVVLTENDSRYNNMYVDSIKQYYFLGRLVPRGRGAAEAATRKQRITETESPYQELQGQRSDVYSDLNTQRPYYK
modifications: hCER104
B2: CER123: Chimeric engulfment receptor: Tim4 binding, Tim4 transmembrane, TLR2 and TRAF6 signaling; SEQ ID NO: 164 (protein)
chain: MSKGLLLLWLVTELWWLYLTPAASEDTIIGFLGQPVTLPCHYLSWSQSRNSMCWGKGSCPNSKCNAELLRTDGTRIISRKSTKYTLLGKVQFGEVSLTISNTNRGDSGVYCCRIEVPGWFNDVKKNVRLELRRATTTKKPTTTTRPTTTPYVTTTTPELLPTTVMTTSVLPTTTPPQTLATTAFSTAVTTCPSTTPGSFSQETTKGSAFTTESETLPASNHSQRSMMTISTDIAVLRPTGSNPGILPSTSQLTTQKTTLTTSESLQKTTKSHQINSRQTILIIACCVGFVLMVLLFLAFLHRFHGLWYMKMMWAWLQAKRKPRKAPSRNICYDAFVSYSERDAYWVENLMVQELENFNPPFKLCLHKRDFIPGKWIIDNIIDSIEKSHKTVFVLSENFVKSEWCKYELDFSHFRLFDENNDAAILILLEPIEKKAIPQRFCKLRKIMNTKTYLEWPMDEAQREGFWVNLRAAIKSMSLLNCENSCGSSQSESDCCVAMASSCSAVTKDDSVGGTASTGNLSSSFMEEIQGYDVEFDPPLESKYECPICLMALREAVQTPCGHRFCKACIIKSIRDAGHKCPVDNEILLENQLFPDNFAKREILSLMVKCPNEGCLHKMELRHLEDHQAHCEFALMDCPQCQRPFQKFHINIHILKDCPRRQVSCDNCAASMAFEDKEIHDQNCPLANVICEYCNTILIREQMPNHYDLDCPTAPIPCTFSTFGCHEKMQRNHLARHLQENTQSHMRMLA
modifications: CER123, amino acids 1-22 are signal peptide

Key:
[1] = system: HCC827 NSCLC adenocarcinoma cells; assay: FACS phagocytosis assay with pHrodo-red labeled HCC827 cells; type: cell-based; conditions: for % phagocytosis (pHrodo-positivity): overnight co-culture with HCC827
From the text: FIG. 67B is a bar graph of frequency of phagocytosis among CER-modified CD4+_T cells vs. CER-modified CD8+ T cells
CD4+ or CD3+ T cells were purified from PBMCs, activated, and transduced with lentiviral vector comprising hCER104 nucleic acid. hCER104 is a human CER104 construct comprising a Tim4 binding domain, a Tim4 transmembrane domain, TLR8 engulfment signaling domain, and Dap12 engulfment signaling domain and comprises an amino acid sequence of SEQ ID NO:176. HCC827 cells harbor an EGFR mutation and treatment with EGFR inhibitor osimertinib induces exposure of phosphatidylserine on the cell surface. Transduced T cells were expanded. CER-modified T cells were co-cultured with pHrodo-red labeled HCC827 NSCLC adenocarcinoma cells overnight and evaluated by FACs for pHrodo-positive signals to detect phagocytosis of HCC827 target cells (see, FIG. 67A, box inside FACs plot indicates % phagocytosis). T cell subsets were analyzed for their capacity to phagocytosis using antibody staining. Frequency of in vitro phagocytosis among CD4+ CER-modified T cells was much higher than CD8+ CER-modified T cells (see, FIG. 67B).

[2] = system: HCC827 NSCLC adenocarcinoma cells; assay: HCC827 viability (MTT) and phase contrast microscopy after co-culture with or without osimertinib; type: cell-based
Protocol: Assays were performed at an effector to target cell ratio of 5:1 in the presence or absence of an EGFR small molecular inhibitor (1 nM osimertinib). Co-culture of hCER104 modified CD3+ T cells was compared with co-culture of purified hCER104 modified CD4+ T cells. Cell viability was quantified using 3-(4,5-dimethylthiazol-2-yl)-2,5-diphenyltetrazolium bromide (MTT) assay.
Specific target cell killing of HCC827 observed in hCER104 modified T cells in the presence of osimertinib.
hCER104 modified CD3+ T cells and hCER104 modified CD4+ T cells were co-cultured with HCC827 NSCLC adenocarcinoma cells treated for 48 hours with or without 1 nM osimertinib at an effector to target cell ratio of 5:1. Mock transduced T cells were used as control.

HCC827 NSCLC cells = assay: FACS phagocytosis assay of TAMRA-SE labeled HCC827 cells with or without bafilomycin; type: cell-based; conditions: CER-modified T cells, osimertinib treated HCC827, FACS
From the text: FIGS. 73A-73B show ablation of CER-induced phagocytosis by bafilomycin, an inhibitor of phagolysosome V-ATPase. CER104-modified CD4+ T cells and mock transduced CD4+ T cells (control) were co-cultured with HCC827 cells that were labeled with TAMRA-SE fluorescent dye and treated with osimertinib. Phagocytosis was quantified by FACs.
T cells were transduced with lentiviral vector comprising hCER104 nucleic acid as described in Example 6. hCER104 modified T cells were co-cultured with HCC827 adenocarcinoma cells with or without osimertinib. […] FACs plots from in vitro phagocytosis assays in hCER104 modified T cells or mock transduced control T cells are shown in FIG. 73B.

[3] = system: HPV+ SCC152/luceriferase+ cells; assay: SCC152/luciferase xenograft in NSG mice, bioluminescence imaging; type: in vivo; conditions: CER CD4+ T cells added 1:1 to HPV E7 CD8+ T cells
Protocol: HPV+ SCC152 engrafted NSG mice were treated with HPV E7 TCR modified CD8+ T cells+CD4+ T cells (mock transduced), HPV E7 TCR modified CD8+ T cells+hCER104 modified CD4+ T cells, or untreated. FIG. 74B is a graph of mean values of bioluminescence signal intensities obtained for treatment group.
HPV+ SCC152/luceriferase^+ cells were engrafted in NSG mice. Once tumors were established, mice were treated with HPV E7 specific TCR (SEQ ID NO:84) modified CD8+ T cells+mock transduced CD4+ T cells, HPV E7 specific TCR modified CD8+ T cells+hCER104 (SEQ ID NO:176) modified CD4+ T cells, or untreated (n=5 per treatment group). HPV E7 CD8+ T cells and hCER104 CD4+ T cells were administered at a 1:1 ratio. Tumor volume was measured over time by bioluminescence imaging (see, FIGS. 74A-74B).

[4] = system: E6/E7-specific human TCR/NFAT reporter cell line; assay: Antigen cross-presentation assay with E6/E7 TCR Jurkat NFAT luciferase reporter cells; type: cell-based; conditions: CD4+ and CD8+ CER T cells after phagocytosing HPV+ tumor cells; compared to mock transduced T cells
Protocol: In a phagocytic assay step, CD4+ and CD8+ T cell lines expressing CERs were co-cultured with the CD4+ and CD8+ T cells expressing HPV E7 specific TCR and SCC152 (HPV+) cells overnight. The following day CER+ T cells were subsequently FACS-sorted. FACS plot depicts CT violet^+ CERs. Following FACS purification, antigen presentation of HPV oncoproteins was evaluated. CER-expressing cells were co-cultured at a 1:2 ratio with E6 & E7-specific TCR/NFAT reporter cell lines, and NFAT activation measured over time using a plate reader.
CER-expressing CD4^+ and CD8^+ T cell lines, after phagocytosing HPV^+ tumor cells, are capable of cross-presentation of E7 HPV oncoproteins to E7 TCR/NFAT reporter-expressing T cells as measured by NFAT activation.
CD4+ and CD8+ CER-expressing T cell lines were established from human PBMCs. […]
For assessing MHC-I cross-presentation, SCC152 HPV^+ cells were co-cultured overnight with CER123-expressing CD4+ and CD8+ T cells or mock-transduced (vector only) T cells in the presence of T cells expressing an E7-specific TCR. […] NFAT activation was assessed at serial time points (0, 6, 12, 24, and 72 hrs) by measuring luciferase activity in cell culture supernatants. […] Induction of E711-19-specific Jurkat T cells were quantified by luminescence of NFAT signaling at indicated time points and compared to Mock (vector-alone) transduced T cells (FIG. 63).

Molecule	% phagocytosis (pHrodo-positivity) ([1]; CER-modified CD4+ T cells)	% phagocytosis (pHrodo-positivity) ([1]; CER-modified CD8+ T cells)	frequency of in vitro phagocytosis, CD4+ versus CD8+ CER-modified T cells ([1]; HCC827 target cells)	killing of HCC827 cells, phase contrast microscopy ([2]; 48 hours co-culture, CD4+ and CD3+ T cells, in the presence of osimertinib)	HCC827 cell viability (MTT), CD4+ versus CD3+ CER-modified T cells ([2]; 48 hours, effector to target 5:1, with or without 1 nM osimertinib)	phagocytosis of fluorescent dye-labeled HCC827 cells (HCC827 NSCLC cells)	tumor killing (bioluminescence) [3]	cross-presentation of HPV E7 oncoproteins (NFAT luminescence) [4]
B1	42.0%	9.81%	much higher	specific cell killing	lower cell viability	exhibited phagocytosis	enhanced tumor killing in vivo	
B2								enhanced cross-presentation efficiency
